Results from doi:10.1101/2025.02.16.638521.

Target: biotinylated Sos1^PRS peptide
Test: BLI

Kd: 14.7 µM
Substance: GST-tagged Grb2^SH3C (C-terminal SH3 domain of Grb2) (domain or fragment)
